Laboratory results published in PMC2253636.

Biological target: IEk on the surface of CH27 murine B-cell lymphoma cells (mouse (endogenous in CH27))
Test: flow cytometry on cells; CH27 cells incubated with 1 mM biotinylated peptide for 20 h at 37 °C, washed, stained with streptavidin-Cy5; occupancy of IEk calculated against cells stained with 14-4-4s-bio and streptavidin-Cy5

percent of IEk molecules occupied: 17%
Substance: biotinylated ER60 peptide (from UniProt P27773 448-461)
